Results taken from article PMC10591882 (Cell reports, 2023).

Target: T1, TBEV envelope protein domain III (EDIII) (Tick-borne encephalitis virus, Western …)
T1 chain: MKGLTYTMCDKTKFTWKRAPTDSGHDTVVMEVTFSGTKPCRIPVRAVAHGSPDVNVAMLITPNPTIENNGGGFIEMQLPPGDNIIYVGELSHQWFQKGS
Test: cell-based or functional assay

B1: human monoclonal antibody T025 (antibody, V domains shown)
VH: QVQLVESGGGVVQPGRSLRLSCAASGFTFSNYGMHWVRQAPGKGLDWVAVISYDAISKSYADSVEGRFTISRDNSKNTLYLQMNSLRAEDSAVYYCAKSPTAIDPPFDYWGQGTLVTVSS
VL: EIVMTQSPATLSVSPGERATLSCWASQSVSSNLAWYQQKPGQAPRLLIYGASTRATGIPARFSASGSGTEFTLTISSLQSEDFAVYYCQQYNNWPPRFGQGTKVEIK
For B1, the “IC50 of neutralisation of TBEV-Hypr (virus neutralization test on PS cells)” value was 29.3 ng/mL.
